According to US20200407419A1 (LONZA SALES, published 2020):

Tests used:
[1] = target: IL-7 receptor (IL-7R) on PBMCs (UniProt P16871); test: cell-based or functional assay
[2] = target: CD40 on human B-cells (human, UniProt P25942 21-277); test: cell-based or functional assay
Chain of CD40 on human B-cells (P25942 21-277): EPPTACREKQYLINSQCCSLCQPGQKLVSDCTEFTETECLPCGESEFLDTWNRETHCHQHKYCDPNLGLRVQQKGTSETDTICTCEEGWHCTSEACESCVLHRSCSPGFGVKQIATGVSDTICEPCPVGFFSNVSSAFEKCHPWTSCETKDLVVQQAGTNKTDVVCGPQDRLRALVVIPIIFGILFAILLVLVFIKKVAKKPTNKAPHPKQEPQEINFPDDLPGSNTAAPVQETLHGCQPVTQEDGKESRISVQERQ

Chain of IL-7 receptor (IL-7R) on PBMCs (P16871 21-459 limits assumed): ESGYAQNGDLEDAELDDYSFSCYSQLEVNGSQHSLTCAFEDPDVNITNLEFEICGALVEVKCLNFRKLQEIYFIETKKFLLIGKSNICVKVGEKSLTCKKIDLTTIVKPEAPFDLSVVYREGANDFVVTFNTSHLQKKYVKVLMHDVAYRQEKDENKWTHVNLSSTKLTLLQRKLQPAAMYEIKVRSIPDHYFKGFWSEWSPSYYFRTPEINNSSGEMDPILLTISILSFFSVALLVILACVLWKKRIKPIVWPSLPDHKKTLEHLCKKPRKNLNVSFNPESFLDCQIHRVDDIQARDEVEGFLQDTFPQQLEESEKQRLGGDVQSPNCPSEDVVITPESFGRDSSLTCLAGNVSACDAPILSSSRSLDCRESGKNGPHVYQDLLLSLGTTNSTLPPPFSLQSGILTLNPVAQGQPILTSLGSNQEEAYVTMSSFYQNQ

Q: With “IL-7 exosomes from the pDisplay plasmid encoding a fusion of IL-7 and PDGF Receptor (ligand)” as the molecule, how does the IC50 (p/ml) of reduction of IL-7R levels on PBMCs [1] read?
A: 1.1e+11 p/ml

Q: What does the source list for “exosomes with trimeric CD40L-PTGFRN construct pCB-527 (PTGFRN-trimeric CD40L-GFP) (ligand)”?
A: EC50 of B-cell activation (CD69 positivity on B-cells), ng/mL of CD40L [2]: 1.89 ng/mL; EC50 of B-cell activation (CD69 positivity on B-cells), particles/mL [2]: 4.53e+08 particles/mL

Q: Which EC50 of B-cell activation (CD69 positivity on B-cells), ng/mL of CD40L [2] does the source give for “recombinant human CD40L (Biolegend, Catalog No. 591702) (from UniProt P29965 113-261) (ligand)” here?
A: 28.5 ng/mL

B1: exosomes with trimeric CD40L-PTGFRN construct pCB-766 (tag-less, lacking the C-terminal GFP) (ligand)
chain: MQKGDQNPQIAAHVISEASSKTTSVLQWAEKGYYTMSNNLVTLENGKQLTVKRQGLYYIYAQVTFCSNREASSQAPFIASLCLKSPGRFERILLRAANTHSSAKPCGQQSIHLGGVFELQPGASVFVNVTDPSQVSHGTGFTSFGLLKLGSGGSGGSGGSGMQKGDQNPQIAAHVISEASSKTTSVLQWAEKGYYTMSNNLVTLENGKQLTVKRQGLYYIYAQVTFCSNREASSQAPFIASLCLKSPGRFERILLRAANTHSSAKPCGQQSIHLGGVFELQPGASVFVNVTDPSQVSHGTGFTSFGLLKLGSGGSGGSGGSGMQKGDQNPQIAAHVISEASSKTTSVLQWAEKGYYTMSNNLVTLENGKQLTVKRQGLYYIYAQVTFCSNREASSQAPFIASLCLKSPGRFERILLRAANTHSSAKPCGQQSIHLGGVFELQPGASVFVNVTDPSQVSHGTGFTSFGLLKLSAGGGGSGGGGSRVVRVPTATLVRVVGTELVIPCNVSDYDGPSEQNFDWSFSSLGSSFVELASTWEVGFPAQLYQERLQRGEILLRRTANDAVELHIKNVQPSDQGHYKCSTPSTDATVQGNYEDTVQVKVLADSLHVGPSARPPPSLSLREGEPFELRCTAASASPLHTHLALLWEVHRGPARRSVLALTHEGRFHPGLGYEQRYHSGDVRLDTVGSDAYRLSVSRALSADQGSYRCIVSEWIAEQGNWQEIQEKAVEVATVVIQPSVLRAAVPKNVSVAEGKELDLTCNITTDRADDVRPEVTWSFSRMPDSTLPGSRVLARLDRDSLVHSSPHVALSHVDARSYHLLVRDVSKENSGYYYCHVSLWAPGHNRSWHKVAEAVSSPAGVGVTWLEPDYQVYLNASKVPGFADDPTELACRVVDTKSGEANVRFTVSWYYRMNRRSDNVVTSELLAVMDGDWTLKYGERSKQRAQDGDFIFSKEHTDTFNFRIQRTTEEDRGNYYCVVSAWTKQRNNSWVKSKDVFSKPVNIFWALEDSVLVVKARQPKPFFAAGNTFEMTCKVSSKNIKSPRYSVLIMAEKPVGDLSSPNETKYIISLDQDSVVKLENWTDASRVDGVVLEKVQEDEFRYRMYQTQVSDAGLYRCMVTAWSPVRGSLWREAATSLSNPIEIDFQTSGPIFNASVHSDTPSVIRGDLIKLFCIITVEGAALDPDDMAFDVSWFAVHSFGLDKAPVLLSSLDRKGIVTTSRRDWKSDLSLERVSVLEFLLQVHGSEDQDFGNYYCSVTPWVKSPTGSWQKEAEIHSKPVFITVKMDVLNAFKYPLLIGVGLSTVIGLLSCLIGYCSSHWCCKKEVQETRRERRRLMSMEMD
Q: How did the “EC50 of B-cell activation (CD69 positivity on B-cells), ng/mL of CD40L” value [2] turn out when B1 was run?
A: 1.68 ng/mL

Q: And the “EC50 of B-cell activation (CD69 positivity on B-cells), particles/mL” value [2]?
A: 6.63e+08 particles/mL
